Key:
Assay in all cases: cell-based or functional assay
[1] = target: Rabies virus glycoprotein G, Challenge Virus Standard (CVS)-11 strain (Rabies virus, strain CVS-11 (genotype 1 Lyssavirus)) (UniProt O92284)
[2] = target: Rabies virus glycoprotein G, ERA strain (attenuated vaccine strain, ATCC VR332) (Rabies virus, ERA strain (genotype 1 lyssavirus)) (UniProt P03524)
[3] = target: Rabies virus glycoprotein G, strain CVS-11 (Challenge Virus Standard-11, ATCC VR 959) (Rabies virus, strain CVS-11)
[4] = target: Rabies virus glycoprotein G, strain CVS-11 (ATCC VR 959) (Rabies virus, strain CVS-11 (genotype 1))

Rabies virus glycoprotein G, Challenge Virus Standard (CVS)-11 strain (Rabies virus, strain CVS-11 (genotype 1 Lyssavirus)), sequence (O92284 20-524 limits assumed): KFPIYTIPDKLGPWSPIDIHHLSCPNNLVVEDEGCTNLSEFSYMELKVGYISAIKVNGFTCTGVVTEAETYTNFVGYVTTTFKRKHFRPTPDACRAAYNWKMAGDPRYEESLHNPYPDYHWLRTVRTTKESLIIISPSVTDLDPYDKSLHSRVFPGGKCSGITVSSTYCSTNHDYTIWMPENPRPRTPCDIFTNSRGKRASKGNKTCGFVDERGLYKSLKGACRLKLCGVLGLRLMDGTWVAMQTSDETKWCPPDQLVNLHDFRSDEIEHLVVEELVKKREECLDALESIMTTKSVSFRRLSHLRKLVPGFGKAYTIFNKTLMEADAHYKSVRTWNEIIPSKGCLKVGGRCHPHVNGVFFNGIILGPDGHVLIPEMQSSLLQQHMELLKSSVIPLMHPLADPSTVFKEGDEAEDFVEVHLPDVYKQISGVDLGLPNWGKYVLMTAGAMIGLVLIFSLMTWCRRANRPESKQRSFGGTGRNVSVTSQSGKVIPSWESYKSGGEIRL
Rabies virus glycoprotein G, ERA strain (attenuated vaccine strain, ATCC VR332) (Rabies virus, ERA strain (genotype 1 lyssavirus)), sequence (P03524 20-524 limits assumed): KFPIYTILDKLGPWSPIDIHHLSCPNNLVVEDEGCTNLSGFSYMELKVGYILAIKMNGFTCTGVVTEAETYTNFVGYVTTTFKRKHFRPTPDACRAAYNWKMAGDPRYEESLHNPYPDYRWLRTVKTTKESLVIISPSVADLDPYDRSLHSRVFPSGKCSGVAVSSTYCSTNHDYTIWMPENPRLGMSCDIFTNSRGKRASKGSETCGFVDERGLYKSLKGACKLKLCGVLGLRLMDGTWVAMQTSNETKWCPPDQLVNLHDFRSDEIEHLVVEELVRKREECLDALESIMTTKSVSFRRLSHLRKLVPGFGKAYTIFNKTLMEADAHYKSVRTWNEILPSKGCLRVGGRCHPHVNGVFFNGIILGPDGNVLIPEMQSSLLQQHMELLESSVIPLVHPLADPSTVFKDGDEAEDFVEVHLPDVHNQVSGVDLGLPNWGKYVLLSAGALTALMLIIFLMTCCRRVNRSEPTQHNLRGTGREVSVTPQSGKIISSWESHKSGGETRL

Row | Binder | CVS-11 neutralizing antibody titer (RFFIT), IU/mg [1] | CVS-11 neutralizing antibody titer (RFFIT), IU/ml [1] | CVS-11 neutralizing antibody titer (RFFIT), IU/µM [1] | CVS-11 neutralizing antibody titer (RFFIT), nM IC50 [1] | ERA neutralizing antibody titer (RFFIT): EU/mg [2] | ERA neutralizing antibody titer (RFFIT): EU/ml [2] | ERA neutralizing antibody titer (RFFIT): EU/µM [2] | ERA neutralizing antibody titer (RFFIT): nM IC50 [2] | CVS neutralizing antibody titre (RFFIT): IU/mg [3] | CVS neutralizing antibody titre (RFFIT): IU/ml [3] | CVS neutralizing antibody titre (RFFIT): IU/nM [3] | CVS neutralizing antibody titre (RFFIT): nM IC50 [3] | Potency (IU/nM) increase versus monovalent [3] | CVS neutralizing antibody titer: IU/mg [4] | CVS neutralizing antibody titer: IU/ml [4] | CVS neutralizing antibody titer: IU/µM [4] | CVS neutralizing antibody titer: nM IC50 [4]
1 | LG192C4 (VHH) VHH: EVQLVESGGGLVQAGGSLRLSCEASGRTFSSYAMVGWFRQAPGKEREFVAAVTRWSGARTVYADSVKGRFTISRDNAENTVYLQMNSLKPEDTAVYTCAADSTNRNSGAVYYSWAYDYWGQGTQVTVSS | < 0.63 IU/mg | < 0.5 IU/ml | < 0.01 IU/µM | > 5880 nM | < 0.63 EU/mg | < 0.5 EU/ml | < 0.01 EU/µM | > 5880 nM |  |  |  |  |  |  |  |  | 
2 | LG212G2 (VHH) VHH: EVQLVESGGGLVQPGGSLRLSCAASGFTFGSHDMSWVRQAPGKGSEWVSGIKSGGGSTLYADSVKGRFAISRDNAKNTLYLQMNSLKPEDTAVYYCATDLYGSTWYPGEDRGTQVTVSS | 9.31 IU/mg | 9.12 IU/ml | 0.14 IU/µM | 250 nM | < 0.51 EU/mg | < 0.5 EU/ml | < 0.01 EU/µM | > 7300 nM |  |  |  |  |  |  |  |  | 
3 | 214-E8 15GS 214-E8 (VHH) EVQLVESGGGSVQAGGSLRLSCAASGGTFNPYVMAWFRQAPGNEREFVARIRWSGGDAYYDDSVKGRFAITRDAAKNTVHLQMNSLKPEDTAVYYCAAATYGYGSYTYGGSYDLWGQGTQVTVSSGGGGSGGGGSGGGGSEVQLVESGGGSVQAGGSLRLSCAASGGTFNPYVMAWFRQAPGNEREFVARIRWSGGDAYYDDSVKGRFAITRDAAKNTVHLQMNSLKPEDTAVYYCAAATYGYGSYTYGGSYDLWGQGTQVTVSS |  |  |  |  |  |  |  |  | 349 IU/mg | 454 IU/ml | 9.78 IU/nM | 3.28 nM | 31.5 fold |  |  |  | 
4 | LG212A2 (VHH) VHH: EVQLVESGGGLVQAGGSLRLSCAASGRTFDTYFVGWFRQAPGKERDFVAAISWSGDRTFYADSVKGRFTISRDNAKNTEYLQMNSLKPEDTAVYYCAAREYGRLYSDSEAYDYWGQGTQVTVSS | 1.72 IU/mg | 1.62 IU/ml | 0.03 IU/µM | 1340 nM | 0.55 EU/mg | 0.52 EU/ml | 0.01 EU/µM | 3940 nM |  |  |  |  |  |  |  |  | 
5 | 212-C12 15GS 212-C12 (VHH) EVQLVESGGGLVQPGGSLRLSCAASGFTFGSSDMSWVRQAPGKGPEWVSGINSGGGRTLYADSVKGRFTISRDNAKNTLYLQMNSLKSEDTAVYYCATDLYGSSWYTDYWSQGTQVTVSSGGGGSGGGGSGGGGSEVQLVESGGGLVQPGGSLRLSCAASGFTFGSSDMSWVRQAPGKGPEWVSGINSGGGRTLYADSVKGRFTISRDNAKNTLYLQMNSLKSEDTAVYYCATDLYGSSWYTDYWSQGTQVTVSS |  |  |  |  |  |  |  |  | 330 IU/mg | 330 IU/ml | 8.57 IU/nM | 3.74 nM | 4.6 fold |  |  |  | 
6 | LG191E4 (VHH) VHH: EVQLVESGGGLVQAGGSLRLSCAASGPTFSADTMGWFRQAPGKEREFVATIPWSGGIAYYSDSVKGRFTMSRDNAKNTVDLQMNSLKPEDTALYYCAGSSRIYIYSDSLSERSYDYWGQGTQVTVSS | < 0.63 IU/mg | < 0.5 IU/ml | < 0.01 IU/µM | > 5960 nM | < 0.63 EU/mg | < 0.5 EU/ml | < 0.01 EU/µM | > 5960 nM |  |  |  |  |  |  |  |  | 
7 | LG213D6 (VHH) VHH: EVQLVESGGGLVQPGGSLRLSCAASGFTFGDSDMSWVRQAPGEGPEWVAGINSGGGSTVYADSVKGRFTISRDNAKNMLYLQMNSLKPEDTAVYLCAQGLMAEVTAGYWGQGTQVTVSS | < 0.48 IU/mg | < 0.5 IU/ml | < 0.01 IU/µM | > 7820 nM | < 0.48 EU/mg | < 0.5 EU/ml | < 0.01 EU/µM | > 7820 nM |  |  |  |  |  |  |  |  | 
8 | LG214A8 (VHH) VHH: EVQLVKSGGGSVQAGGSLRLSCAASGGTFNPYVMAWFRQAPGNEREFVARIRWSGGDAYYDDSVKGRFAITRDAAKNTVHLQMNSLKPEDTAVYYCAAATYGYGSYTYGGSYDLWGQGTQVTVSS | 7.93 IU/mg | 9.12 IU/ml | 0.12 IU/µM | 293 nM | < 0.43 EU/mg | < 0.5 EU/ml | < 0.01 EU/µM | > 8560 nM |  |  |  |  |  |  |  |  | 
9 | LG214H10 (VHH) VHH: EVQLVESGGGSVQAGGSLRLSCAASGGTFNPYVMAWFRQAPGNEREFVARIRWSGGDAYYDDSVKGRFAITRDAAKNTVHLQMNSLKPEDTAVYYCAAATYGYGSYTYGGSYDLWGQGTQVTVSS | 8.17 IU/mg | 11.4 IU/ml | 0.12 IU/µM | 284 nM |  |  |  |  |  |  |  |  |  | 17.8 IU/mg | 25 IU/ml | 0.27 IU/µM | 111 nM
10 | LG213B7 (VHH) VHH: EVQLVESGGGLVQAGGSLRLSCTVSGDTFDNSAAGWYRATSETQRELVARIRSSGSTNYADSVKGRFTVSRDNAKNTVYLQMNSLKPEDTAVYYCNVVSYGEYFWGKGTLVTVSS | 7.38 IU/mg | 4.87 IU/ml | 0.11 IU/µM | 316 nM | 8.35 EU/mg | 5.51 EU/ml | 0.12 EU/µM | 268 nM |  |  |  |  |  |  |  |  | 
11 | LG213D7 (VHH) VHH: EVQLVESGGGLVQAGGSLRLSCTVSGDTFDNSAAGWYRATSETQRELVARIRSSGSTNYADSVKGRFTVSRDNAKNTVYLQMNSLKPEDTAVYYCNVVSYGEYFWGKGTLVTVSS | 7.61 IU/mg | 5.1 IU/ml | 0.11 IU/µM | 305 nM | 8.91 EU/mg | 5.97 EU/ml | 0.13 EU/µM | 251 nM |  |  |  |  |  |  |  |  | 
12 | 213-E6 5GS 213-E6 (VHH) EVQLVESGGGLVQAGASLRLSCAASGSTLSRYGVGWFRQAPGKERELVASVDWSGSRTYYADSVKGRFTISRDNAKNTGYLQMNSLKPDDTAVYYCAADSSVVPGIEKYDDWGLGTQVTVSSGGGGSEVQLVESGGGLVQAGASLRLSCAASGSTLSRYGVGWFRQAPGKERELVASVDWSGSRTYYADSVKGRFTISRDNAKNTGYLQMNSLKPDDTAVYYCAADSSVVPGIEKYDDWGLGTQVTVSS |  |  |  |  |  |  |  |  | 1300 IU/mg | 1290 IU/ml | 36 IU/nM | 0.88 nM | 27.7 fold |  |  |  | 
13 | LG214C10 (VHH) VHH: EVQLVESGGGLVQPGGSLRLSCAASGFIFGSYDMSWVRQAPGKGPEWVSGINSGGGSTGYADSVKGRFTISRDNAKNTLYLQMNSLKPEDTAVYYCSTNLYPTTDDVWGQGTQVTVSS | 10.6 IU/mg | 4.24 IU/ml | 0.16 IU/µM | 220 nM | 35.1 EU/mg | 14 EU/ml | 0.52 EU/µM | 63.7 nM |  |  |  |  |  |  |  |  | 
14 | LG212B2 (VHH) VHH: EMQLVESGGGLVQAGDSLRLSCAASGDTFSWYVMAWFRQAPGKEREFVTWINRSGASTYYADSVKGRFTIFRDNDKNTVYLQMNSLKPEDTAVYYCAAGGFYGLRTTEERYDTWGQGTQVTVSS | 3.66 IU/mg | 2.6 IU/ml | 0.05 IU/µM | 634 nM | 2.59 EU/mg | 1.84 EU/ml | 0.04 EU/µM | 865 nM |  |  |  |  |  |  |  |  | 
15 | LG214F8 (VHH) VHH: EVQLVESGGDLVQAGGSLRLSCVASGSTYSINAMGWYRQAPGKLRELVAAFRTGGSTDYADSVKGRFTISRDTAKNTVYLQMNSLKPEDTAVYYCNAEVIYYPYDYWGQGTQVTVSS | 7.19 IU/mg | 1.15 IU/ml | 0.11 IU/µM | 325 nM | 23.8 EU/mg | 3.81 EU/ml | 0.36 EU/µM | 94 nM |  |  |  |  |  |  |  |  | 

From US20200123233A1
